Measurements published in article PMC2654577.
Where two headings read alike, the source gives them in different places.

Legend:
Experiment in all cases: enzyme inhibition kinetics
[1] = target: factor XIa catalytic domain K179A (human)
[2] = target: factor XIa catalytic domain K170A (human) (UniProt P03951)
[3] = target: factor Xa mutants with substitutions for basic residues in the autolysis loop
[4] = target: recombinant wild type factor XIa catalytic domain (human) (UniProt P03951)
[5] = target: factor XIa catalytic domain K175A (human)
[6] = target: wild type factor Xa (UniProt P00742)
[7] = target: factor XIa catalytic domain K179A (human); remark: listed apart in the source
[8] = target: factor XIa catalytic domain K170A (human) (UniProt P03951); remark: listed apart in the source
[9] = target: factor XIa catalytic domain R173A (human) (UniProt P03951)
[10] = target: full-length factor XIa autolysis loop variant fXIa-144-149A (human)
[11] = target: factor XIa catalytic domain K175A (human); remark: listed apart in the source
[12] = target: factor XIa catalytic domain K179A (human); remark: listed apart in the source
[13] = target: factor XIa catalytic domain K170A (human) (UniProt P03951); remark: listed apart in the source
[14] = target: factor XIa catalytic domain R173A (human) (UniProt P03951); remark: listed apart in the source
[15] = target: full-length factor XIa autolysis loop variant fXIa-144-149A (human); remark: listed apart in the source
[16] = target: factor XIa catalytic domain R171A (human) (UniProt P03951)
[17] = target: factor XIa catalytic domain K175A (human); remark: listed apart in the source
[18] = target: full-length factor XIa autolysis loop variant fXIa-144-149A (human); remark: listed apart in the source

B1: C1-inhibitor (natural protein)
chain: NPNATSSSSQDPESLQDRGEGKVATTVISKMLFVEPILEVSSLPTTNSTTNSATKITANTTDEPTTQPTTEPTTQPTIQPTQPTTQLPTDSPTQPTTGSFCPGPVTLCSDLESHSTEAVLGDALVDFSLKLYHAFSAMKKVETNMAFSPFSIASLLTQVLLGAGENTKTNLESILSYPKDFTCVHQALKGFTTKGVTSVSQIFHSPDLAIRDTFVNASRTLYSSSPRVLSNNSDANLELINTWVAKNTNNKISRLLDSLPSDTRLVLLNAIYLSAKWKTTFDPKKTRMEPFHFKNSVIKVPMMNSKKYPVAHFIDQTLKAKVGQLQLSHNLSLVILVPQNLKHRLEDMEQALSPSVFKAIMEKLEMSKFQPTLLTLPRIKVTTSQDMLSIMEKLEFFDFSYDLNLCGLTEDPDLQVSAMQHQTVLELTETGVEAAAASAISVARTLLVFEVQQPFLFVLWDQQHKFPVFMGRVYDPRA
k2 (second-order inhibition rate constant) [1]: 778000 M⁻¹ s⁻¹ | k2 (second-order inhibition rate constant) [2]: 734000 M⁻¹ s⁻¹ | fold effect of heparin on inhibition [3]: 4 fold | k2 (second-order inhibition rate constant) [4]: 750000 M⁻¹ s⁻¹ | k2 (second-order inhibition rate constant) [5]: 730000 M⁻¹ s⁻¹ | fold effect of heparin on inhibition [6]: 35 fold | k2 (second-order inhibition rate constant) [7]: 8800 M⁻¹ s⁻¹ | k2 (second-order inhibition rate constant) [8]: 10000 M⁻¹ s⁻¹ | k2 (second-order inhibition rate constant) [9]: 9100 M⁻¹ s⁻¹ | k2 (second-order inhibition rate constant) [10]: 19500 M⁻¹ s⁻¹ | k2 (second-order inhibition rate constant) [11]: 7300 M⁻¹ s⁻¹ | k2 (second-order inhibition rate constant) [12]: 1100 M⁻¹ s⁻¹ | k2 (second-order inhibition rate constant) [13]: 1200 M⁻¹ s⁻¹ | k2 (second-order inhibition rate constant) [14]: 1300 M⁻¹ s⁻¹ | k2 (second-order inhibition rate constant) [15]: 19200 M⁻¹ s⁻¹ | k2 (second-order inhibition rate constant) [16]: 600 M⁻¹ s⁻¹ | k2 (second-order inhibition rate constant) [17]: 1000 M⁻¹ s⁻¹ | k2 (second-order inhibition rate constant) [18]: 600 M⁻¹ s⁻¹
